Reference: the supplement of paper PMC10567573

B1: EHMT1 (parent)
chain: SARQGELQKVLLMLVDGIDPNFKM
B2: TMEM175 (parent)
chain: QTSAFARQPRDELERVRVSCTIIF

Variants of: B1
Experiment: protein stability index of a GFP-peptide fusion (GPS, HEK-293T) (PSI 1-6); higher = more stable
Conditions: c terminus: a fixed tail appended
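Further: lentivirally expressed fusions sorted by FACS into six bins by GFP to DsRed ratio, PSI derived from sequencing read proportions per bin multiplied by bin number.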

Protein stability index: each site, then its substitutions
Q8: D 1.43
M13: I 1.04
A2: G 1.02
K23: V 2.81
G17: Y 2.38
L7: A 1.91

Variants of: B2
Experiment: as above
Conditions: c terminus: a fixed tail appended

Protein stability index of substitutions, site by site:
E14: N 1.1; W 2.96; V 2.86; P 3.5; Y 3.27; Q 2.93; F 3.09; D 1.84; A 1.67; R 2.03
T21: M 2.77; A 2; H 2.12; L 2.64; R 1.52; C 2.27; K 1.66; S 2.3; N 2.7; P 2.06; Q 1.58; F 2.01; G 2.91; Y 1.34; D 2.72; E 1.76; I 2.63
C20: P 1.78; V 1.83; R 3.05; F 2.07; Q 2.42; T 1.51; A 2.33; Y 1.83; H 1.57; D 2.53; I 2.61; E 2.22; N 2.57; W 2.42; K 1.95; S 1.94; G 1.56
Q1: E 2.25; G 3.41; H 1.6; D 1.63; S 2.17; N 3.4; P 2.32; K 2.24; M 1.64; F 3.36; A 3.97; Y 3.11; L 1.38
E12: F 1.76; M 1.89; D 2.16; A 3.94; I 2.56; T 2.95; S 2.72; Q 1.9; K 2.07; Y 2.81; H 2.73; W 1.9; C 2.24
L13: P 2.37; F 3.31; K 1.64; I 1.54; G 1.59; W 2.89; Q 1.27; V 2.53; T 1.99; D 1.3; Y 4.09; E 1.83; S 2; C 3.23; R 2.76; M 2.23; N 1.55
T2: L 1.55; N 1.66; W 3.26; S 3.61; M 1.89; Q 4.14; H 2.22; Y 3.16; F 2.49; A 1.83; D 3.37
S3: Q 2.21; A 3.58; K 2.62; N 2.02; R 1.06; G 1.91; Y 2.69; W 2.24; L 1.05; H 1.69; M 3.41; F 2.04; I 2.13; E 2.02
I22: A 1.99; K 3.06; L 2.49; M 1.88; D 3.54; H 2.72; F 1.65; E 2.91; Q 2.62; P 3.2; N 3.05; G 2.94; C 2.08
V18: K 2.41; I 2.49; Q 1.71; M 1.88; S 2.23; L 1.08; D 2.02; P 2.47; N 2.35; C 1.82; E 2.31; T 2.2; Y 2.11; W 2.19; G 1.79; R 1.57; H 1.83; F 2.17; A 2.53
F5: S 1.94; T 2.01; Y 2.54; E 1.91; N 1.65; D 1.69; A 1.75; C 4.13; K 1.34; Q 2.27; M 2.25; L 1.9; R 1.38; H 1.48; V 2.15; P 2.48; I 1.72
R7: A 2.46; V 1.33; C 3.01; Q 1.6; F 2.53; T 2.68; I 2.42; Y 1.58; M 2.66; K 2.08; D 2.01; E 1.91; L 2.48
S19: M 2.94; H 2.13; G 2.74; T 3.22; I 1.73; W 1.39; N 3.03; R 1.84; V 1.99; Y 1.65; P 1.6; C 1.97; L 1.78; Q 2.37; A 1.55; F 1.57
V16: D 1.98; N 2.04; T 1.4; G 1.14; R 2.47; K 1.97; H 2.65; F 2; S 1.83; E 2.22; Y 2.81; I 2.63; L 1.91; A 2.06; Q 2.53; M 1.16; W 2.56
Q8: P 2.1; D 2.12; Y 2.14; G 4.14; A 1.48; V 1.56; L 1.87; C 3.32; M 3.58; W 2.58; T 2; I 2.01; R 3.17; H 2.68
R17: P 2.09; F 2; I 2.2; S 2.35; E 2.92; A 3.04; H 2.73; N 3.17; M 2.91; L 4.15; G 2.53; Q 3.06; C 1.28; Y 4.15; D 2.58
P9: S 1.15; Q 1.71; L 2.43; T 2.67; H 2.88; W 2.31; V 3.32; I 2.44; G 2.81; N 2.67; F 2.38; R 1.91; E 3.41; K 1.03; Y 2.83; D 2.03
R15: M 2.04; Q 1.77; V 2.81; I 3.42; A 3.73; C 1.88; L 3.73; D 1.79; K 3.37; T 5.08; Y 3.62; P 2.19; W 3.37; G 3.8; N 4.18; F 2.54; E 3.77
D11: L 3.31; P 2.6; S 2.81; Q 2.47; Y 3.09; T 4.12; C 2.58; G 3.67; V 2.38; K 3.33; N 3.52; A 3.09; E 2.73
A6: N 2.57; K 2.11; F 1.36; E 3.06; W 2.34; C 3.04; L 1.6; M 1.74; Y 2.68; T 1.44; H 2.09; V 2.9; R 1.84; D 2.35
A4: H 1.46; P 3.2; S 3.97; K 1.26; L 3.63; T 2.06; Y 1.46; I 1.96; E 2.9; R 2.89; G 2.95; F 1.88; D 3.36; V 1.7; M 3.56; N 1.5
R10: C 2.79; A 2.28; P 2.87; I 2.06; H 2.4; M 2.35; S 2.4; K 3.68; W 3.68; Y 2.65; T 2.48; Q 3.27; N 2.57; E 2.31; V 2.03; D 2.48
